Measurements as given in the RNAGym collection of RNA variant scans (doi:10.7554/elife.80360).

B1: Hairpin Ribozyme (parent)
chain: GUCCUCUUUCACGUGCGCGUGAAAGAGAGAAGUGAACCAGAGAAACACACGUUGUGGUAUAUUACCUGGUA

Variants of: B1
Test: self-cleavage, relative activity (ratio to wild type); higher = more cleavage; co-transcriptional
With GUCCUCUUUCACGUGCGCGUGAAAGAUAGAAGUGAACCAGAGAAACACACUUUGUGGUAUAUUACCUGGUA [G27U G51U] the self-cleavage was 0.402.
With GUCCUCUUUCACGUGCGCGUGAAAGAUAGAAGUGAACCAGAGAAACACACGUUAUGGUAUAUUACCUGGUA [G27U G54A] the self-cleavage was 0.26.
Variant GUCCUCUUUCACGUGCGCGUGAAAGAUAGAAGUGAACCAGAGAAACACACGUUCUGGUAUAUUACCUGGUA [G27U G54C] has a self-cleavage of 0.133.
For GUCCUCUUUCACGUGCGCGUGAAAGAUAGAAGUGAACCAGAGAAACACACGUUUUGGUAUAUUACCUGGUA [G27U G54U], the self-cleavage was 0.208.
Work on GUCCUCUUUCACGUGCGCGUGAAAGAUAGAAGUGAACCAGAGAAACACACGUUGUGAUAUAUUACCUGGUA [G27U G57A] yielded a self-cleavage of 0.209.
In the case of GUCCUCUUUCACGUGCGCGUGAAAGAUAGAAGUGAACCAGAGAAACACACGUUGUGUUAUAUUACCUGGUA [G27U G57U], the self-cleavage is reported as 0.144.
Variant GUCCUCUUUCACGUGCGCGUGAAAGAUAGAAGUGAACCAGAGAAACACACGUUGUGGUAUAUUACCUGAUA [G27U G69A] has a self-cleavage of 0.0822.
With GUCCUCUUUCACGUGCGCGUGAAAGAUAGAAGUGAACCAGAGAAACACACGUUGUGGUAUAUUACCUGCUA [G27U G69C] the self-cleavage was 0.2.
GUCCUCUUUCACGUGCGCGUGAAAGAUAGAAGUGAACCAGAGAAACACACGUUGUGGUAUAUUACCUGUUA [G27U G69U] showed a self-cleavage of 0.152.
GUCCUCUUUCACGUGCGCGUGAAAGAUAGAAGUGAACCAGAGAAACACACGCUGUGGUAUAUUACCUGGUA [G27U U52C] gave a self-cleavage of 0.377.
Variant GUCCUCUUUCACGUGCGCGUGAAAGAUAGAAGUGAACCAGAGAAACACACGGUGUGGUAUAUUACCUGGUA [G27U U52G] has a self-cleavage of 0.114.
For GUCCUCUUUCACGUGCGCGUGAAAGAUAGAAGUGAACCAGAGAAACACACGUUGAGGUAUAUUACCUGGUA [G27U U55A], the self-cleavage was 0.152.
GUCCUCUUUCACGUGCGCGUGAAAGAUAGAAGUGAACCAGAGAAACACACGUUGUGGUAAAUUACCUGGUA [G27U U60A] gave a self-cleavage of 0.243.
Work on GUCCUCUUUCACGUGCGCGUGAAAGAUAGAAGUGAACCAGAGAAACACACGUUGUGGUAUAGUACCUGGUA [G27U U62G] yielded a self-cleavage of 0.0869.
In the case of GUCCUCUUUCACGUGCGCGUGAAAGAUAGAAGUGAACCAGAGAAACACACGUUGUGGUAUAUCACCUGGUA [G27U U63C], the self-cleavage is reported as 0.0849.
Work on GUCCUCUUUCACGUGCGCGUGAAAGAUAGAAGUGAACCAGAGAAACACACGUUGUGGUAUAUUACCCGGUA [G27U U67C] yielded a self-cleavage of 0.0907.
Work on GUCCUCUUUCACGUGCGCGUGAAAGAUAGAAGUGAACCAGAGAAACACACGUUGUGGUAUAUUACCGGGUA [G27U U67G] yielded a self-cleavage of 0.111.
GUCCUCUUUCACGUGCGCGUGAAAGAUAGAAGUGAACCAGAGAAACACACGUUGUGGUAUAUUACCUGGGA [G27U U70G] gave a self-cleavage of 0.228.
GUCCUCUUUCACGUGCGCGUGAAAGAGCGCAGUGAACCAGAGAAACACACGUUGUGGUAUAUUACCUGGUA [A28C A30C] showed a self-cleavage of 0.0316.
With GUCCUCUUUCACGUGCGCGUGAAAGAGCGGAGUGAACCAGAGAAACACACGUUGUGGUAUAUUACCUGGUA [A28C A30G] the self-cleavage was 0.136.
With GUCCUCUUUCACGUGCGCGUGAAAGAGCGUAGUGAACCAGAGAAACACACGUUGUGGUAUAUUACCUGGUA [A28C A30U] the self-cleavage was 0.126.
With GUCCUCUUUCACGUGCGCGUGAAAGAGCGAAGUGAACCGGAGAAACACACGUUGUGGUAUAUUACCUGGUA [A28C A39G] the self-cleavage was 0.171.
Work on GUCCUCUUUCACGUGCGCGUGAAAGAGCGAAGUGAACCAGGGAAACACACGUUGUGGUAUAUUACCUGGUA [A28C A41G] yielded a self-cleavage of 0.352.
Work on GUCCUCUUUCACGUGCGCGUGAAAGAGCGAAGUGAACCAGAGAUACACACGUUGUGGUAUAUUACCUGGUA [A28C A44U] yielded a self-cleavage of 0.046.
With GUCCUCUUUCACGUGCGCGUGAAAGAGCGAAGUGAACCAGAGAAACACGCGUUGUGGUAUAUUACCUGGUA [A28C A49G] the self-cleavage was 0.173.
Variant GUCCUCUUUCACGUGCGCGUGAAAGAGCGAAGUGAACCAGAGAAACACUCGUUGUGGUAUAUUACCUGGUA [A28C A49U] has a self-cleavage of 0.192.
For GUCCUCUUUCACGUGCGCGUGAAAGAGCGAAGUGAACCAGAGAAACACACGUUGUGGUCUAUUACCUGGUA [A28C A59C], the self-cleavage was 0.
Work on GUCCUCUUUCACGUGCGCGUGAAAGAGCGAAGUGAACCAGAGAAACACACGUUGUGGUAUGUUACCUGGUA [A28C A61G] yielded a self-cleavage of 0.1.
GUCCUCUUUCACGUGCGCGUGAAAGAGCGAAGUGAACCAGAGAAACACACGUUGUGGUAUAUUCCCUGGUA [A28C A64C] showed a self-cleavage of 0.245.
For GUCCUCUUUCACGUGCGCGUGAAAGAGCGAAGUGAACCAGAGAAACACACGUUGUGGUAUAUUGCCUGGUA [A28C A64G], the self-cleavage was 0.285.
GUCCUCUUUCACGUGCGCGUGAAAGAGCGAAGUGAACCAGAGAAACACACGUUGUGGUAUAUUUCCUGGUA [A28C A64U] showed a self-cleavage of 0.237.
In the case of GUCCUCUUUCACGUGCGCGUGAAAGAGCGAAGUGAAGCAGAGAAACACACGUUGUGGUAUAUUACCUGGUA [A28C C37G], the self-cleavage is reported as 0.199.
Work on GUCCUCUUUCACGUGCGCGUGAAAGAGCGAAGUGAACCAGAGAAACAAACGUUGUGGUAUAUUACCUGGUA [A28C C48A] yielded a self-cleavage of 0.122.
Work on GUCCUCUUUCACGUGCGCGUGAAAGAGCGAAGUGAACCAGAGAAACACAUGUUGUGGUAUAUUACCUGGUA [A28C C50U] yielded a self-cleavage of 0.168.
GUCCUCUUUCACGUGCGCGUGAAAGAGCGAAGUGAACCAGAGAAACACACGUUGUGGUAUAUUAACUGGUA [A28C C65A] gave a self-cleavage of 0.231.
For GUCCUCUUUCACGUGCGCGUGAAAGAGCGAAGUGAACCAGAGAAACACACGUUGUGGUAUAUUAUCUGGUA [A28C C65U], the self-cleavage was 0.249.
For GUCCUCUUUCACGUGCGCGUGAAAGAGCGAAGUGAACCAGAGAAACACACGUUGUGGUAUAUUACAUGGUA [A28C C66A], the self-cleavage was 0.0844.
For GUCCUCUUUCACGUGCGCGUGAAAGAGCAAAGUGAACCAGAGAAACACACGUUGUGGUAUAUUACCUGGUA [A28C G29A], the self-cleavage was 0.199.
